Assay results as given in article doi:10.1101/2021.12.28.474374 (bioRxiv, 2021).

Molecular target: T1, Ctc1 OB-A (residues 1-183) (Tetrahymena, UniProt A0PGB2 1-183)
T1 sequence (looked up): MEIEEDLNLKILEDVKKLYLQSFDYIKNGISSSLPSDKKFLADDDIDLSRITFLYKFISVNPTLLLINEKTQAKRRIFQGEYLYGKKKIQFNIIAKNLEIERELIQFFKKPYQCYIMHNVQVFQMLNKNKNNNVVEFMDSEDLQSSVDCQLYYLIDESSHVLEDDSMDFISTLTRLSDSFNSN
Experiment: NMR titration

B1: p50 peptide (residues 228-250) (peptide, UniProt D2CVN8 228-250, looked up)
peptide: CQQDDFGDGCLLQIVNYTHQSLK
  stoichiometry N: 1
